# How the values were obtained:
# [1] = tested on: patients with locally advanced or metastatic breast cancer; experiment: Phase I/II study of CDX-011, preliminary 18 patients: toxicity and dose escalation; assay type: in vivo, human
# Method: (§1) There was no limit to the number of prior regimens.
# (§2) For Phase I dose escalation studies, the starting dose was 1.34 mg/kg IV every three weeks (q3w). Sequential dose cohorts (n=3) were enrolled based on tolerability. The cap was set at 1.88 mg/kg IV q3w.
# The toxicity results are shown below in Table 34. All treatment-emergent adverse events are shown in the table, regardless of attribution.
# [2] = tested on: patients with locally advanced or metastatic breast cancer; experiment: Phase I/II study of CDX-011, preliminary 18 patients: tumor response; assay type: in vivo, human
# Method: as §1, §2
# [3] = tested on: patients with locally advanced or metastatic breast cancer; experiment: Phase II study (n = 42): tolerability of CR011-vcMMAE (CDX-011); assay type: in vivo, human
# Text: (§3) For the Phase II Simon Two-Stage study, the primary endpoint was set at progression-free rate at 12 weeks. The following statistical assumptions were used p0=10%; p1=30%; α=β=0.10; first stage included sixteen patients; and if two or more patients were progression-free at 12 weeks, the total enrollment would increase to 25.
# In particular, the treated patients (n=42) received a mean of 3.5 (range 1-8) cycles of treatment during this study. Four patients discontinued treatment due to adverse events (neuropathy, rash, dermatologic bullae and acute renal failure). Dose-escalation dose-limiting toxicities (DLTs) were limited to two cases of neuropathy (at the 1.34 mg/kg dose). After revision of the protocol to exclude pre-existing neuropathy ≧Grade 2, no further DLT occurred.
# [4] = tested on: patients with locally advanced or metastatic breast cancer; experiment: Phase II Simon Two-Stage study / Phase II dose: anti-tumor activity (RECIST); assay type: in vivo, human; conditions: for Median PFS: Phase II Dose 1.88 mg/kg
# Method: as §3
# Additional measures of anti-tumor activity were evaluated for the patients in this further study.
# [5] = tested on: GPNMB-expressing breast cancer cells; experiment: growth / killing of GPNMB-expressing breast cancer cells in vitro; assay type: cell-based
# melanoma = melanoma patients; cited from earlier work
# [6] = 18 patients, regardless of attribution
# [7] = All Patients (n = 42), potentially related to CDX-011
# [8] = one patient with triple-negative disease, strongly positive stromal GPNMB expression
substance,measurement,setting,value
glembatumumab vedotin [CDX-011],tolerability in dose escalation,[1]; 1.88 mg/kg IV q3w,tolerated
same,"Alopecia, Total",[1]; [6],9 (50%) n (%)
same,"Anorexia, Grade 3",[1]; [6],0 (0%) n (%)
same,"Anorexia, Grade 4",[1]; [6],0 (0%) n (%)
same,"Anorexia, Total",[1]; [6],5 (28%) n (%)
same,"Any Event, Grade 3",[1]; [6],10 (56%) n (%)
same,"Any Event, Grade 4",[1]; [6],0 (0%) n (%)
same,"Any Event, Total",[1]; [6],18 (100%) n (%)
same,"Constipation, Grade 3",[1]; [6],0 (0%) n (%)
same,"Constipation, Grade 4",[1]; [6],0 (0%) n (%)
same,"Constipation, Total",[1]; [6],6 (33%) n (%)
same,"Cough, Grade 3",[1]; [6],1 (6%) n (%)
same,"Cough, Grade 4",[1]; [6],0 (0%) n (%)
same,"Cough, Total",[1]; [6],6 (33%) n (%)
same,"Diarrhea, Grade 3",[1]; [6],0 (0%) n (%)
same,"Diarrhea, Grade 4",[1]; [6],0 (0%) n (%)
same,"Diarrhea, Total",[1]; [6],5 (28%) n (%)
same,"Dizziness, Grade 3",[1]; [6],0 (0%) n (%)
same,"Dizziness, Grade 4",[1]; [6],0 (0%) n (%)
same,"Dizziness, Total",[1]; [6],4 (22%) n (%)
same,"Dysgeusia, Grade 3",[1]; [6],0 (0%) n (%)
same,"Dysgeusia, Grade 4",[1]; [6],0 (0%) n (%)
same,"Dysgeusia, Total",[1]; [6],4 (22%) n (%)
same,"Fatigue, Grade 3",[1]; [6],1 (6%) n (%)
same,"Fatigue, Grade 4",[1]; [6],0 (0%) n (%)
same,"Fatigue, Total",[1]; [6],9 (50%) n (%)
same,"Fever, Grade 3",[1]; [6],0 (0%) n (%)
same,"Fever, Grade 4",[1]; [6],0 (0%) n (%)
same,"Fever, Total",[1]; [6],5 (28%) n (%)
same,"Nausea, Grade 3",[1]; [6],1 (6%) n (%)
same,"Nausea, Grade 4",[1]; [6],0 (0%) n (%)
same,"Nausea, Total",[1]; [6],8 (44%) n (%)
same,"Neuropathy, Grade 3",[1]; [6],2 (11%) n (%)
same,"Neuropathy, Grade 4",[1]; [6],0 (0%) n (%)
same,"Neuropathy, Total",[1]; [6],7 (39%) n (%)
same,"Neutropenia, Grade 3",[1]; [6],3 (17%) n (%)
same,"Neutropenia, Grade 4",[1]; [6],0 (0%) n (%)
same,"Neutropenia, Total",[1]; [6],5 (28%) n (%)
same,"Pain, Gastrointestinal, Grade 3",[1]; [6],1 (6%) n (%)
same,"Pain, Gastrointestinal, Grade 4",[1]; [6],0 (0%) n (%)
same,"Pain, Gastrointestinal, Total",[1]; [6],6 (33%) n (%)
same,"Pain, Musculoskeletal, Grade 3",[1]; [6],1 (6%) n (%)
same,"Pain, Musculoskeletal, Grade 4",[1]; [6],0 (0%) n (%)
same,"Pain, Musculoskeletal, Total",[1]; [6],5 (28%) n (%)
same,"Pruritus, Grade 3",[1]; [6],0 (0%) n (%)
same,"Pruritus, Grade 4",[1]; [6],0 (0%) n (%)
same,"Pruritus, Total",[1]; [6],3 (17%) n (%)
same,"Rash, Grade 3",[1]; [6],1 (6%) n (%)
same,"Rash, Grade 4",[1]; [6],0 (0%) n (%)
same,"Rash, Total",[1]; [6],11 (61%) n (%)
same,"Vomiting, Grade 3",[1]; [6],0 (0%) n (%)
same,"Vomiting, Grade 4",[1]; [6],0 (0%) n (%)
same,"Vomiting, Total",[1]; [6],7 (39%) n (%)
same,dose-limiting toxicity,"[1]; first two patients enrolled at 1.34 mg/kg IV q3w, both had baseline neuropathy",dose-limiting worsening of peripheral sensory neuropathy
same,patients discontinued for an adverse event,"[1]; of 18 patients treated, one for neuropathy and one for rash",two
same,tumor shrinkage,"[2]; initial results from a phase I/II trial, metastatic breast cancer",tumor shrinkage was observed
same,confirmed partial response,[2]; of the 18 patients,one
same,patients with at least a partial response,[2]; of the 18 patients,three
same,tumor shrinkage observed,[2]; of the 18 patients (50%),9 patients
same,maximum tumor reduction,"[2]; one patient, ER+/PR+/HER2+, partial response after two cycles, confirmed 6 weeks later, treatment for over 5 months",42%
same,"reduction in target lesions (partial response, CT)","[2]; one patient, ER+/PR+/HER2−, GPNMB positive biopsy, after two cycles",51%
same,clinical outcome,"[2]; one patient, triple negative, skull metastases, following two cycles, resolution of mental nerve paresis and discontinuation of analgesics",marked clinical improvement
same,"reduction in target lesions (partial response, CT)","[2]; one patient, triple negative, after four cycles",34%
same,tolerability,"[3]; 1.88 mg/kg IV q3w, patients with advanced breast cancer",well-tolerated
same,"Alopecia, Total",[3]; [7],14 (33%) n (%)
same,"Anemia, Total",[3]; [7],10 (24%) n (%)
same,"Asthenia, Grade 3",[3]; [7],2 (5%) n (%)
same,"Asthenia, Total",[3]; [7],3 (7%) n (%)
same,"Fatigue, Grade 3",[3]; [7],2 (5%) n (%)
same,"Fatigue, Total",[3]; [7],20 (48%) n (%)
same,"Nausea, Grade 3",[3]; [7],2 (5%) n (%)
same,"Nausea, Total",[3]; [7],19 (45%) n (%)
same,"Neuropathy, Grade 3",[3]; [7],1 (2%) n (%)
same,"Neuropathy, Total",[3]; [7],10 (24%) n (%)
same,"Neutropenia, Grade 3",[3]; [7],8 (19%) n (%)
same,"Neutropenia, Total",[3]; [7],12 (29%) n (%)
same,"Rash, Grade 3",[3]; [7],2 (5%) n (%)
same,"Rash, Total",[3]; [7],19 (45%) n (%)
same,"Vomiting, Grade 3",[3]; [7],1 (2%) n (%)
same,"Vomiting, Total",[3]; [7],12 (29%) n (%)
same,serious adverse events potentially related,[3]; all single cases at the Phase II dose,"intractable vomiting/nausea, dermatologic bullae and acute renal failure"
same,dose-escalation dose-limiting toxicities (DLTs),[3]; at the 1.34 mg/kg dose,two
same,patients discontinued treatment due to adverse events,"[3]; n=42, neuropathy, rash, dermatologic bullae and acute renal failure",Four
same,most common adverse event reported,[3]; patients treated with CR011-vcMMAE,Rash
same,Median PFS,[4]; all patients,9.1 weeks
same,Median PFS,[4]; Expressing GPNMB,18.3 weeks
same,Median PFS,[4]; Triple-negative disease,17.9 weeks
same,outcomes by expression of GPNMB,[4]; heavily pretreated advanced breast cancer patients,associated with improved outcomes
same,duration partial response was maintained,[4]; [8],≥ 23 weeks
same,tumor shrinkage (partial response),[4]; [8],53%
same,patients without progression at 12 weeks (primary efficacy endpoint),[4]; out of 26 patients,at least 9 patients
same,killing of GPNMB-expressing breast cancer cells,[5],selectively killed
same,growth of GPNMB-expressing breast cancer cells,[5]; in vitro,effectively inhibits the growth
same,clinical activity,melanoma,clinical activity
same,tolerability,melanoma,well tolerated

# From patent US20160280784A1, “Antibodies Directed to GPNMB and Uses Thereof” (Celldex Therapeutics, Inc., priority 2009, published 2016)
